Assay results reported in patent publication US20080220446A1 (published 2008).
Each block holds one binder with its values, some of them ahead of it. Ends that are not written are not given here.

Key:
[1] = target: T1, recombinant human β2-glycoprotein I (insect cells) (human, UniProt P02749 20-345); assay: SPR (Biacore), HGFA F immobilized on CM5 chip
T1 construct: also called recombinant β2GPI; rβ2GPI
T1 sequence (looked up): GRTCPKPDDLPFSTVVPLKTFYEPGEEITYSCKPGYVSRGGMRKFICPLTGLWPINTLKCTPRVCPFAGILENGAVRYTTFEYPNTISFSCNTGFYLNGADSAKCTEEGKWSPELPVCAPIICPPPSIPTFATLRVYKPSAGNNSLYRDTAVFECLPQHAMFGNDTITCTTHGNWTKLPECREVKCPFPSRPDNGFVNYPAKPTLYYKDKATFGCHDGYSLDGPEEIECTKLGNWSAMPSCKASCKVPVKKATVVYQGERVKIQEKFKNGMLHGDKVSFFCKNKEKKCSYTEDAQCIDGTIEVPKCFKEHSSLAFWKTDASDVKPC
Experimental: (§1) A standardized amine coupling procedure was used to couple proteins with F domains to a CM5 chip (Biacore AB, Uppsala, Sweden). First, the dextran surface of the chips was activated by a 35 μl injection with a 1:1 mixture of 0.1 M N-hydroxysuccinimide (NHS) and 0.4 M N-ethyl-N′-(dimethylaminopropyl)carbodiimide (EDC) at a flow rate of 5 μl min.⁻¹. Then, the proteins were covalently coupled to the activated dextran surface. Remaining activated groups in each of the four flow channels were blocked by injection of 35 μl of 1 M ethanolamine hydrochloride pH 8.5. EDC, NHS and ethanolamine hydrochloride were obtained from Biacore. […] The flow rate was 10 μl min.⁻¹, the injection time was 120″. The running buffer during immobilization was 10 mM HEPES pH 7.4, 140 mM NaCl. Buffers were filtrated on a 0.22 μm filter (white GSWP, 47 mm, Millipore) and degassed at room temperature. For subsequent binding experiments, the running buffer was 10 mM HEPES pH 7.4, 140 mM NaCl, 1.5 mM CaCl₂, 10 mM εACA, 0.005% Tween-20. […] After each injection of protein, the chip was regenerated with 0.1 M H₃PO₄ pH 1.0.

[2] = target: T1, recombinant human β2-glycoprotein I …; assay: SPR (Biacore), tPA F immobilized on CM5 chip
Experimental: as §1

[3] = target: T2, human coagulation factor VIII (FVIII) (Aafact) (human, UniProt P00451 20-2351); assay: ELISA, therapeutic coated on Nunc Immobilizer plate, concentration series of tPA, one-site binding fit
T2 chain 1: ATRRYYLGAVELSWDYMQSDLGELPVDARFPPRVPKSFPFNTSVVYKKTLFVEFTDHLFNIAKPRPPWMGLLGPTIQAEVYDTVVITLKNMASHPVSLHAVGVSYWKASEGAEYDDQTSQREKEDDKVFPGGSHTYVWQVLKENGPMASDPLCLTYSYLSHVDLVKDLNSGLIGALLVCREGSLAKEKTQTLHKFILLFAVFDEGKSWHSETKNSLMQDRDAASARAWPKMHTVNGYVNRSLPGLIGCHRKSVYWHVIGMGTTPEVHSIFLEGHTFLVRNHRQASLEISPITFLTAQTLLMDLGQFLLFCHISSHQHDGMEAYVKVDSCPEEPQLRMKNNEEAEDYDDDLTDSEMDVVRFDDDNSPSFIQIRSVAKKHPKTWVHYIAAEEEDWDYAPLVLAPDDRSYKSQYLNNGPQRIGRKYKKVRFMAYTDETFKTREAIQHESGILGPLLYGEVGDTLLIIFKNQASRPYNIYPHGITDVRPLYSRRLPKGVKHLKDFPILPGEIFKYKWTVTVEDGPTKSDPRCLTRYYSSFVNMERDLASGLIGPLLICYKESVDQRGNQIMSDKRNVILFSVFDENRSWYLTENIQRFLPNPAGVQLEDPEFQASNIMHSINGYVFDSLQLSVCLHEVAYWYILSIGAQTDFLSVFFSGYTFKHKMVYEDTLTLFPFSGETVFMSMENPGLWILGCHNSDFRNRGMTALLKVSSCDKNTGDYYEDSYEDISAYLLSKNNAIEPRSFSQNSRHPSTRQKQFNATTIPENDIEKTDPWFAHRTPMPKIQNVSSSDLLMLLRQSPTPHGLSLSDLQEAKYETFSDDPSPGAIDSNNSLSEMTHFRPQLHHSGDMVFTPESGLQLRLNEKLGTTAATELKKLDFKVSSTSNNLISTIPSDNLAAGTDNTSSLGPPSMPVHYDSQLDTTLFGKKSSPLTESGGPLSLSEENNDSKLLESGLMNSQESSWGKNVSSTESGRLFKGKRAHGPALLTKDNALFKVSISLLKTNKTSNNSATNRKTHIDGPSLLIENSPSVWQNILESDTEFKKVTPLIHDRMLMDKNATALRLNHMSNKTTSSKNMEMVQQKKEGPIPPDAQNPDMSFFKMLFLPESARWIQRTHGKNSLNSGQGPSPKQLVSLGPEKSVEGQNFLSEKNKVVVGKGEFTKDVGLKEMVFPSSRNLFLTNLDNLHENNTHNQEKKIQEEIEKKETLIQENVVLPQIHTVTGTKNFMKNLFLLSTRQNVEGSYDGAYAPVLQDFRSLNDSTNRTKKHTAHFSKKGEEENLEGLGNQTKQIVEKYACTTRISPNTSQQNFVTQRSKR
T2 chain 2: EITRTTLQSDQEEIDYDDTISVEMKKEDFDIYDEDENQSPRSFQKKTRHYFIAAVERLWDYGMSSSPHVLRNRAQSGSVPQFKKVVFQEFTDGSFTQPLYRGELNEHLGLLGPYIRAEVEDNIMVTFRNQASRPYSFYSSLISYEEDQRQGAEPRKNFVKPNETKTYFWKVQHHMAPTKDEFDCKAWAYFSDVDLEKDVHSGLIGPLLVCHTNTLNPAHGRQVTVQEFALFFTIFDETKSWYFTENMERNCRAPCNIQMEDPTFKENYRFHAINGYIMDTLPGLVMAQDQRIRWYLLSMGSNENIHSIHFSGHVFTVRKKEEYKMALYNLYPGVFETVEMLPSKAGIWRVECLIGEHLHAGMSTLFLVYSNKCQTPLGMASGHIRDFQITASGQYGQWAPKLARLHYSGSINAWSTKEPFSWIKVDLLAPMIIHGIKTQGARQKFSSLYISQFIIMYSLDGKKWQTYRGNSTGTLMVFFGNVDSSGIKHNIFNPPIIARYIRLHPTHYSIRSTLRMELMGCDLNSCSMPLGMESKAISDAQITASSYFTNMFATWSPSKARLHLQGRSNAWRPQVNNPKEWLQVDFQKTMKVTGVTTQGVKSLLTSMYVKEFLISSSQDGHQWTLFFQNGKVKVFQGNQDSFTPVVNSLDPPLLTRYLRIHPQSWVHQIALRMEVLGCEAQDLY
Experimental: (§2) Plates were washed twice with Tris buffered saline pH 7.2 containing 0.1% Tween20 (TBST) and blocked with PBS containing 1% Tween20 for 1 hour at room temperature. […] Plates were washed five times with TBST and incubated with peroxidase labeled anti-mouse immunoglobulins (RAMPO; DAKOCytomation, Glostrup, Denmark) diluted 1:3000 in PBST for 30 minutes at room temperature. Plates were washed five times with PBS 0.1% Tween20, and stained with 100 μL/well of tetramethyl-benzidine (TMB) substrate (Biosource Europe, Nivelles, Belgium). The reaction was terminated with 50 μL/well of 2 M H₂SO₄ and substrate conversion was read at 450 nm on a Spectramax340 microplate reader. Curves were fitted with a one-site binding model (GraphPad Prism version 4.02 for Windows, Graphpad Software, Calif., USA) from which Kd and Bmax were determined.

[4] = target: abciximab (ReoPro); assay: as above
Experimental: as §2

[5] = target: T3, rapid acting human insulin analogue (NovoRapid Flexpen) (human, UniProt P01308 90-110; P01308 25-54); assay: as above
T3 construct: also called Insulin Aspart
Experimental: as §2

[6] = target: T4, human albumin (Cealb, Sanquin-CLB) (human, UniProt P02768 25-609); assay: as above
T4 construct: also called CeaIb
Experimental: as §2

[7] = target: T5, recombinant human Zn2+-chelated insulin (Monotard) (human, UniProt P01308 90-110; P01308 25-54); assay: as above
T5 construct: also called zinc-insulin; zinc-chelated insulin
Experimental: as §2

[8] = target: Infliximab (Remicade), human-murine chimeric monoclonal antibody; assay: cell-based or functional assay
[9] = target: abciximab (ReoPro); assay: cell-based or functional assay
[10] = target: Etanercept (Enbrel), native; assay: cell-based or functional assay
[11] = target: T3, rapid acting human insulin analogue …; assay: cell-based or functional assay
[12] = target: T5, recombinant human Zn2+-chelated insulin …; assay: cell-based or functional assay

Chain of abciximab (ReoPro) (VH, as listed by the source, chain 1 of 2): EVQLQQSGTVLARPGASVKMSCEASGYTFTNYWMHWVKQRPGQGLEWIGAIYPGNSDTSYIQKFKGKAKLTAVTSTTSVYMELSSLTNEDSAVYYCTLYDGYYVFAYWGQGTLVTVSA
Chain of abciximab (ReoPro) (VL, as listed by the source, chain 2 of 2): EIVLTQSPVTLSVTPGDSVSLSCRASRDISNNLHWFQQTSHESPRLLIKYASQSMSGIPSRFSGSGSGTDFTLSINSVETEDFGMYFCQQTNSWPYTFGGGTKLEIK
T3 sequence (P01308 90-110 limits assumed, chain 1 of 2): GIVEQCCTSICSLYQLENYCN
T3 sequence (P01308 other isoform, or with tags, fused parts or gaps limits assumed, chain 2 of 2): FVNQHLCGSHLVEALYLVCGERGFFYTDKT
T5 sequence (P01308 25-54 limits assumed, chain 2 of 2): as the sequence (P01308 other isoform, or with tags, fused parts or gaps limits assumed, chain 2 of 2) above, with D28P counted along it

binding result [1]: no binding (tested: 0-300 nM)
B1: chemically synthesized HGFA F domain (other)
chain: EKCFDETRYEYLEGGDRWARVRQGHVEQCECFGGRTWCEGTK
modifications: carboxy-terminal acetylated lysine residue
notes: domain: F domain; Immobilized on the second Biacore chip

binding result [2]: no binding (tested: 0-300 nM)
B2: chemically synthesized tPA F domain (other, human)
chain: SYQVICRDEKTQMIYQQHQSWLRPVLRSNRVEYCWCNSGRAQCHSVPVKSK
modifications: ends and bridges not checked; also: C-terminal Lys acetylated or biotinylated, not given here which
notes: domain: F domain; Made by native chemical ligation; immobilized on the second Biacore chip

Bmax [3]: 0.54 OD450 nm
Bmax [4]: 0.533 OD450 nm
Bmax [5]: 3.62 OD450 nm
Bmax [6]: 1.23 OD450 nm
Bmax [7]: 0.756 OD450 nm
tPA activation, Max. Activation (%) (tPA-dependent plasminogen activation, % of standardized positive control) [8]: 0%
tPA activation, Max. Activation (%) (tPA-dependent plasminogen activation, % of standardized positive control) [9]: 0%
tPA activation, Max. Activation (%) (tPA-dependent plasminogen activation, % of standardized positive control) [10]: 0%
tPA activation, Max. Activation (%) (tPA-dependent plasminogen activation, % of standardized positive control) [11]: 70.9%
tPA activation, Max. Activation (%) (tPA-dependent plasminogen activation, % of standardized positive control) [12]: 17.4%
B3: tissue-type plasminogen activator (tPA) (enzyme, human, UniProt P00750 36-562, looked up)
chain: SYQVICRDEKTQMIYQQHQSWLRPVLRSNRVEYCWCNSGRAQCHSVPVKSCSEPRCFNGGTCQQALYFSDFVCQCPEGFAGKCCEIDTRATCYEDQGISYRGTWSTAESGAECTNWNSSALAQKPYSGRRPDAIRLGLGNHNYCRNPDRDSKPWCYVFKAGKYSSEFCSTPACSEGNSDCYFGNGSAYRGTHSLTESGASCLPWNSMILIGKVYTAQNPSAQALGLGKHNYCRNPDGDAKPWCHVLKNRRLTWEYCDVPSCSTCGLRQYSQPQFRIKGGLFADIASHPWQAAIFAKHRRSPGERFLCGGILISSCWILSAAHCFQERFPPHHLTVILGRTYRVVPGEEEQKFEVEKYIVHKEFDDDTYDNDIALLQLKSDSSRCAQESSVVRTVCLPPADLQLPDWTECELSGYGKHEALSPFYSERLKEAHVRLYPSSRCTSQHLLNRTVTDNMLCAGDTRSGGPQANLHDACQGDSGGPLVCLNDGRMTLVGIISWGLGCGQKDVPGVYTKVTNYLDWIRDNMRP
notes: Full-length commercial tPA; also called Actilyse; Alteplase
